Data from patent US20230121775A1 (AMUNIX PHARMACEUTICALS, published 2023).

B1: CD3.9 scFv (parental anti-CD3 scFv) (scFv)
scFv: ELVVTQEPSLTVSPGGTVTLTCRSSTGAVTTSNYANWVQQKPGQAPRGLIGGTNKRAPGTPARFSGSLLGGKAALTLSGVQPEDEAEYYCALWYSNLWVFGGGTKLTVLGATPPETGAETESPGETTGGSAESEPPGEGEVQLLESGGGLVQPGGSLKLSCAASGFTFNTYAMNWVRQAPGKGLEWVARIRSKYNNYATYYADSVKDRFTISRDDSKNTAYLQMNNLKTEDTAVYYCVRHGNFGNSYVSWFAYWGQGTLVTVSS
notes: VL-linker-VH scFv; also called hCD3.9; aCD3.9
B2: CD3.23 scFv (scFv)
scFv: ELVVTQEPSLTVSPGGTVTLTCRSSNGAVTSSNYANWVQQKPGQAPRGLIGGTNKRAPGTPARFSGSLLGGKAALTLSGVQPEDEAVYYCALWYPNLWVFGGGTKLTVLGATPPETGAETESPGETTGGSAESEPPGEGEVQLLESGGGIVQPGGSLKLSCAASGFTFNTYAMNWVRQAPGKGLEWVARIRSKYNNYATYYADSVKDRFTISRDDSKNTVYLQMNNLKTEDTAVYYCVRHENFGNSYVSWFAHWGQGTLVTVSS
notes: VL-linker-VH scFv; also called hCD3.23; aCD3.23
B3: CD3.24 scFv (scFv)
scFv: ELVVTQEPSLTVSPGGTVTLTCRSSNGEVTTSNYANWVQQKPGQAPRGLIGGTIKRAPGTPARFSGSLLGGKAALTLSGVQPEDEAVYYCALWYPNLWVFGGGTKLTVLGATPPETGAETESPGETTGGSAESEPPGEGEVQLLESGGGIVQPGGSLKLSCAASGFTFNTYAMNWVRQAPGKGLEWVARIRSKYNNYATYYADSVKDRFTISRDDSKNTVYLQMNNLKTEDTAVYYCVRHENFGNSYVSWFAHWGQGTLVTVSS
notes: VL-linker-VH scFv
B4: CD3.25 scFv (scFv)
scFv: ELVVTQEPSHTVSPGGTVTLTCRSSTGAVTSSNYANWVQQKPGQAPRGLIGGTIKRAPGTPARFSGSLLGGKAALTLSGVQPEDEAEYYCALWYPNLWVFGGGTKLTVLGATPPETGAETESPGETTGGSAESEPPGEGEVQLLESGGGIVQPGGSLKLSCAASGFTFNTYAMNWVRQAPGKGLEWVARIRSKYNNYATYYADSVKDRFTISRDDSKNTVYLQMNNLKTEDTAVYYCVRHENFGNSYVSWFAHWGQGTLVTVSS
notes: VL-linker-VH scFv
B5: CD3.26 scFv (scFv)
scFv: ELVVTQEPSHTVSPGGTVTLTCRSSTGEVTTSNYANWVQQKPGQAPRGLIGGTIKRAPGTPARFSGSLLGGKAALTLSGVQPEDEAEYYCALWYPNLWVFGGGTKLTVLGATPPETGAETESPGETTGGSAESEPPGEGEVQLLESGGGIVQPGGSLKLSCAASGFTFNTYAMNWVRQAPGKGLEWVARIRSKYNNYATYYADSVKDRFTISRDDSKNTVYLQMNNLKTEDTAVYYCVRHENFGNSYVSWFAHWGQGTLVTVSS
notes: VL-linker-VH scFv

These binders were tested against Biotinylated CD3(Eµ antigen (Creative Biomart) (UniProt P07766 23-126, biotinylated (site not stated))) (assay: BLI (ForteBio BLItz), biotinylated CD3 antigen on streptavidin biosensor, scFv in solution).
Biotinylated CD3(Eµ antigen (Creative Biomart), sequence (P07766 23-126): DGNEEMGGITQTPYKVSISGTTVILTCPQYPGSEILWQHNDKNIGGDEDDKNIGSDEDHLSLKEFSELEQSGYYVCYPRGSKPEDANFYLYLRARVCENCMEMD
B1 was tested, and the Kd was 75 nM.
Work on B2 yielded a Kd of 175 nM.
Work on B3 yielded a Kd of 296 nM.
Work on B4 yielded a Kd of 215 nM.
Binder B5 has a Kd of 221 nM.
